# Target: PCBP2 (poly(C)-binding protein 2, hnRNP E2) (UniProt Q15366)
# Assay: EMSA
# Details: EMSA: 25 mM NaH2PO4 pH 8.0, 50 mM NaCl, 25 mM KCl, 2.5 mM MgCl2, 10 mM imidazole, 0.5 mM DTT, 0.5 mM PMSF, 7% glycerol, 0.5 U/uL RNasin, 75 ng/uL BSA …
# Chain of PCBP2 (poly(C)-binding protein 2, hnRNP E2) (Q15366 whole entry): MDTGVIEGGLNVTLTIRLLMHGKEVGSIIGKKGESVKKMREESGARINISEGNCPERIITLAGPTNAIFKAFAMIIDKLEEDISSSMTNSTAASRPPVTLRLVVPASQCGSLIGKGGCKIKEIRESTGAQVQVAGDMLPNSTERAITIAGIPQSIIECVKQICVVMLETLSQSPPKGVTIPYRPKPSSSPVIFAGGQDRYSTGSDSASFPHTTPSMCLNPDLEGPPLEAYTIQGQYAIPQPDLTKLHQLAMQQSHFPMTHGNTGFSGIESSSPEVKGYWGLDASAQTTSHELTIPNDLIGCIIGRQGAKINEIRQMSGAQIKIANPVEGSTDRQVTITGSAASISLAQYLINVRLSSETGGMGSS
sequence,measurement,value
GGUCAUGGCGACUGUCCAGCUUUGUGCCAGGAGCCUCGCAGGGGUUGAUGGGAUUGGGGUUUUCCCCUCCCAUGUGCUCAAGACUGGCGCUAAAAGUUUUGAGCUUCUCAAAAGUCUAGAGCCACCGUCCAGGGAGCAGGUAGCUGCUGGGCUCCGGGGACACUUUGCGUUCGGGCUGGGAGCGUGCUUUCCACGACGGUGACACGCUUCCCUGGAUUGGCAGCCAGACUGCCUUCCGGGUCACUGCCAUGGAGGAGCCGCAGUCAGAUCCUAGCGUCGAGCCCCCUCUGAGUCAGGAAACAUUUUCAGACCUAUGGAAACUACUUCCUGAAAACAACGUUCUGUCCCCCUUGCCGUCCCAAGCAAUG [P0-Δ40p53 RNA],Kd,63 nM

# — publication PMC8708005
